The target of assay [1] is T1, Chimeric cynomolgus TREM1-mIgG Fc (cynomolgus, UniProt A0A2K5VHG8 21-204).
T1 construct: not shown: mouse IgG Fc
T1 sequence: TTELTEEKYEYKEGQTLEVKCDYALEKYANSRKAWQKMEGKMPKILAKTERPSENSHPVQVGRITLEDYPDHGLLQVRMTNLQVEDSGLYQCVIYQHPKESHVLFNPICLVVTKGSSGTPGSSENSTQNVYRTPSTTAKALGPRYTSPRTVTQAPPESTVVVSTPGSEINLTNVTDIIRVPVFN
The assay can be described thus: SPR (Biacore T200), avid format: cynomolgus TREM1-mIgG Fc captured, antibody as analyte. The protocol: All data were collected at 25° C. 10 mM HEPES pH 7.4, 150 mM NaCl, 3 mM EDTA, 0.05% (v/V) surfactant P20 was used as mobile buffer and for all dilution of mAbs. Anti-mouse Fc was immobilized on a CM4 biosensor chip (GE Healthcare) using amine coupling chemistry. Chimeric cynomolgus TREM1-mIgG Fc was captured on one flow cell and another flow cell (used as reference surface) was left blank. […] After each cycle, the surface was regenerated by injecting a glycine HCl buffer (10 mM, pH 2.0). BIAevaluation software was used to perform the kinetic evaluation. Kinetic evaluation was through generation of sensorgrams which were fitted with a 1:1 Langmuir binding model.
(In general: In SPR one partner is held on a chip, and binding of the other changes the refractive index at the surface.)

Assay [2] concerns the target hCD16 on NFAT-luciferase reporter Jurkat cells (Promega) (human, UniProt P08637 17-254). The assay is described as follows: cell-based or functional assay.
Assay [3] concerns the target T2, cynomolgus TREM1 on cells (cynomolgus, UniProt A0A2K5VHG8 21-233).
T2 construct: whole, on cells; Used for HEK293 cells over-expressing cynomolgus TREM1 and for primary cynomolgus monocytes; also called cynoTREM1; Cyno TREM1 cells
T2 sequence: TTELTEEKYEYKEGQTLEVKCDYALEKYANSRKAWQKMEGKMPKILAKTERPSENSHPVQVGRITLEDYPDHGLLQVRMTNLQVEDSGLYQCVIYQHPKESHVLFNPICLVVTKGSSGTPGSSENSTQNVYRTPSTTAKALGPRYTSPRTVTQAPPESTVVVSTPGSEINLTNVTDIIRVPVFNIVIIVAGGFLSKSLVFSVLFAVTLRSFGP
The assay can be described thus: flow cytometry on HEK293 cells over-expressing cynomolgus TREM1; cells overexpressing cynomolgus TREM1; EC50 about 12-fold weaker than parent (4.61 nM); background binding Y. On the technique in general: A flow cytometer gives signals particle by particle.

hCD16 on NFAT-luciferase reporter Jurkat cells (Promega), sequence (P08637 17-254 F176V): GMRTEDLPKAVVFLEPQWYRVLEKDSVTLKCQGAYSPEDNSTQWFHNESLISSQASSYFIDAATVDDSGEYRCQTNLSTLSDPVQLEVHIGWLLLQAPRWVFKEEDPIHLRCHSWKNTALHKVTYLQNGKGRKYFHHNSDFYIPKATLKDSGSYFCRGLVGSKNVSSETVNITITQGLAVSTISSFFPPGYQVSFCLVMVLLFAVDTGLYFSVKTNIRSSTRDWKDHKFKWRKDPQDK

B1: PI-4026-5-M100E (fucosylated) (antibody, human IgG1, kappa)
heavy: not shown
light: DIQLTQSPSSLSASVGDRVTITCSASSSVSYMHWYQQKPGKAPKLLLYTTSNLASGVPSRFSGSGSGTDYTLTISSLQPEDFATYYCHQWSGYPTFGQGTKLEIKRTVAAPSVFIFPPSDEQLKSGTASVVCLLNNFYPREAKVQWKVDNALQSGNSQESVTEQDSKDSTYSLSSTLTLSKADYEKHKVYACEVTHQGLSSPVTKSFNRGEC
For orientation: Kd means the equilibrium constant for the complex coming apart. Read a high Kd as lower affinity. In general, EC50 refers to the concentration at which the effect is half-maximal. Molecule B1 came in with a Kd in assay [1] of 6.19 nM. Moreover, the “hCD16 ADCC assay EC50” value in assay [2] was determined as 3.18 nM. Also, the EC50 in assay [3] worked out at 58 nM.

(Values after US20200255529A1 (PIONYR IMMUNOTHERAPEUTICS, published 2020).)
